B1: Zyxin (Homo sapiens), Q15942 (parent)
chain: MAAPRPSPAISVSVSAPAFYAPQKKFGPVVAPKPKVNPFRPGDSEPPPAPGAQRAQMGRVGEIPPPPPEDFPLPPPPLAGDGDDAEGALGGAFPPPPPPIEESFPPAPLEEEIFPSPPPPPEEEGGPEAPIPPPPQPREKVSSIDLEIDSLSSLLDDMTKNDPFKARVSSGYVPPPVATPFSSKSSTKPAAGGTAPLPPWKSPSSSQPLPQVPAPAQSQTQFHVQPQPQPKPQVQLHVQSQTQPVSLANTQPRGPPASSPAPAPKFSPVTPKFTPVASKFSPGAPGGSGSQPNQKLGHPEALSAGTGSPQPPSFTYAQQREKPRVQEKQHPVPPPAQNQNQVRSPGAPGPLTLKEVEELEQLTQQLMQDMEHPQRQNVAVNELCGRCHQPLARAQPAVRALGQLFHIACFTCHQCAQQLQGQQFYSLEGAPYCEGCYTDTLEKCNTCGEPITDRMLRATGKAYHPHCFTCVVCARPLEGTSFIVDQANRPHCVPDYHKQYAPRCSVCSEPIMPEPGRDETVRVVALDKNFHMKCYKCEDCGKPLSIEADDNGCFPLDGHVLCRKCHTARAQT
partner: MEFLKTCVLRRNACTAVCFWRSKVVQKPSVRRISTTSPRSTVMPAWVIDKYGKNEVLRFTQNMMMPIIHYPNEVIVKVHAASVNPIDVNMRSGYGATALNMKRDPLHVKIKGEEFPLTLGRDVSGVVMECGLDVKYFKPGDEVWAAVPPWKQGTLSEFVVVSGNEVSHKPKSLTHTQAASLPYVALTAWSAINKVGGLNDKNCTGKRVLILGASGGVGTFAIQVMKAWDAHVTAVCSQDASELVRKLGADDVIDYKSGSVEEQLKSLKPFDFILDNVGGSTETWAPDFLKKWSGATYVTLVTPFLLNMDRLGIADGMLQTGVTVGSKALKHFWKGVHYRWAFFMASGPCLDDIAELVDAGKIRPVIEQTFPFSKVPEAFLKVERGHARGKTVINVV
B2: Cytohesin-4 (Homo sapiens), Q9UIA0 (parent)
chain: MDLCHPEPAELSSGETEELQRIKWHRKQLLEDIQKLKDEIADVFAQIDCFESAEESRMAQKEKELCIGRKKFNMDPAKGIQYFIEHKLLTPDVQDIARFLYKGEGLNKTAIGTYLGERDPINLQVLQAFVDCHEFANLNLVQALRQFLWSFRLPGEAQKIDRMMEAFATRYCLCNPGVFQSTDTCYVLSFSIIMLNTSLHNPNVRDRPPFERFVSMNRGINNGSDLPEDQLRNLFDSIKSEPFSIPEDDGNDLTHTFFNPDREGWLLKLGGRVKTWKRRWFILTDNCLYYFEFTTDKEPRGIIPLENLSVQKVDDPKKPFCLELYNPSCRGQKIKACKTDGDGRVVEGKHESYRISATSAEERDQWIESIRASITRVPFYDLVSTRKKKIASKQ
B3: Myogenin (Homo sapiens), P15173 (parent)
chain: MELYETSPYFYQEPRFYDGENYLPVHLQGFEPPGYERTELTLSPEAPGPLEDKGLGTPEHCPGQCLPWACKVCKRKSVSVDRRRAATLREKRRLKKVNEAFEALKRSTLLNPNQRLPKVEILRSAIQYIERLQALLSSLNQEERDLRYRGGGGPQPGVPSECSSHSASCSPEWGSALEFSANPGDHLLTADPTDAHNLHSLTSIVDSITVEDVSVAFPDETMPN
partner: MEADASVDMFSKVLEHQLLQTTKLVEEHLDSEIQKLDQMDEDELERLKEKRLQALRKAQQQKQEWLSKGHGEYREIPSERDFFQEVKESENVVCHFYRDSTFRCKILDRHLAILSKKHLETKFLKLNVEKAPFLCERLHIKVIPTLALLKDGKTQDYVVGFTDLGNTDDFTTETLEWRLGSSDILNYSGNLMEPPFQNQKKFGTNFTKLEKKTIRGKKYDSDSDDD
B4: Four and a half LIM domains protein 2 (Homo sapiens), Q14192 (parent)
chain: MTERFDCHHCNESLFGKKYILREESPYCVVCFETLFANTCEECGKPIGCDCKDLSYKDRHWHEACFHCSQCRNSLVDKPFAAKEDQLLCTDCYSNEYSSKCQECKKTIMPGTRKMEYKGSSWHETCFICHRCQQPIGTKSFIPKDNQNFCVPCYEKQHAMQCVQCKKPITTGGVTYREQPWHKECFVCTACRKQLSGQRFTARDDFAYCLNCFCDLYAKKCAGCTNPISGLGGTKYISFEERQWHNDCFNCKKCSLSLVGRGFLTERDDILCPDCGKDI
partner: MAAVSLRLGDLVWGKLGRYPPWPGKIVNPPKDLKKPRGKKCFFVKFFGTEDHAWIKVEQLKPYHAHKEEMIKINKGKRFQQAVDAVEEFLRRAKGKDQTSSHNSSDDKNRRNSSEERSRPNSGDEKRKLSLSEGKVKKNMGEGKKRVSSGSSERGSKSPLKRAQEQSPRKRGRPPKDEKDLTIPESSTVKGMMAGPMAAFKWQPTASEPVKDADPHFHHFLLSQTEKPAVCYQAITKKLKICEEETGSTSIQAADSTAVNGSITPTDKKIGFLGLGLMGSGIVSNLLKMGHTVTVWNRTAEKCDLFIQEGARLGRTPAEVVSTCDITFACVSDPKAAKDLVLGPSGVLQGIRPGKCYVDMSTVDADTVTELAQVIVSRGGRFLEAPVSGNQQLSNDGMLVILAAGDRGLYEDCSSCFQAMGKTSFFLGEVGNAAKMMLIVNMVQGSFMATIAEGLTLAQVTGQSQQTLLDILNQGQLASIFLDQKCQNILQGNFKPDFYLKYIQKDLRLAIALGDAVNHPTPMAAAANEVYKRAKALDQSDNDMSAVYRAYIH
B5: Homeobox protein VENTX (Homo sapiens), O95231 (parent)
chain: MRLSSSPPRGPQQLSSFGSVDWLSQSSCSGPTHTPRPADFSLGSLPGPGQTSGAREPPQAVSIKEAAGSSNLPAPERTMAGLSKEPNTLRAPRVRTAFTMEQVRTLEGVFQHHQYLSPLERKRLAREMQLSEVQIKTWFQNRRMKHKRQMQDPQLHSPFSGSLHAPPAFYSTSSGLANGLQLLCPWAPLSGPQALMLPPGSFWGLCQVAQEALASAGASCCGQPLASHPPTPGRPSLGPALSTGPRGLCAMPQTGDAF

The values below come from IntAct's records for PubMed 31515488.

In the first test the parent is B1. As to conditions: with rt4i1_human RTN4IP1, Q8WWV3.
As for R563Q, the “effect of a mutation on the interaction” value is given as “with no effect”.

With R489W, the “effect of a mutation on the interaction” value is on record as “with no effect”.

Variants of B2 are the subject of the next test. As to conditions: with fos_human FOS.
In the case of A9T, the “effect of a mutation on the interaction” value is on record as “with no effect”.

For M74V, the “effect of a mutation on the interaction” value is “with no effect”.

The variants in the next test derive from B3. As to conditions: with txnd9_human TXNDC9, O14530.
Consider A181T, for which the “effect of a mutation on the interaction” value is “disrupting interaction strength”.

As to P49H, the “effect of a mutation on the interaction” value was “with no effect”.

The variants in a further test derive from B4. The following applies: with glyr1_human GLYR1, Q49A26.
Turning to A37S, the “effect of a mutation on the interaction” value is reported as “with no effect”.

Regarding N95K, the “effect of a mutation on the interaction” value was “with no effect”.

A further test covers variants of B5. The following applies: with rbpms_human RBPMS.
For A226E, the “effect of a mutation on the interaction” value is reported as “with no effect”.

For the variant L42P, the “effect of a mutation on the interaction” value is “with no effect”.

As for M251V, the “effect of a mutation on the interaction” value is listed as “with no effect”.
